Patent publication US12599645B2, “Antibodies which bind to lysophosphatidic acid receptor 1 (LPAR1)” (DJS ANTIBODIES LTD, priority 2021, dated 2026)

B1: Antibody 12: LCDR2 mutation T56D; VH SEQ ID NO: 36, VL SEQ ID NO: 38 (antibody, V domains shown)
VH: QVQLVQSGSELKKPGASVKVSCKASGYTFTSSGISWVRQAPGQGLEWMGEILPRSGYTNYNQGFTGRFVFSADKSVSTAYLQISSLKAEDTAVYYCARDFKGGRYAMDYWGQGTTVTVSS
VL: SIQMTQSPSSLSASVGDRVTITCQASQSVRYNVAWYQQKPGKAPKLLIYYASNRYDGVPSRFSGSGSGTDFTFTISSLQPEDIATYFCQHHYSSPLTFGGGTKLEIK
B2: Antibody 17: Optimised antibody; VH SEQ ID NO: 102, VL SEQ ID NO: 99 (antibody, V domains shown)
VH: QVQLVQSGSELKKPGASVKVSCKASGYTFTSSGISWVRQAPGQGLEWMGEIQPRSGYTNYNQGFTGRFVFSADKSVSTAYLQISSLKAEDTAVYYCARDKGPARYTMDYWGQGTTVTVSS
VL: SIQMTQSPSSLSASVGDRVTITCQASQSVRYNVAWYQQKPGKAPKLLIYYASNRYEGVPSRFSGSGSGTDFTFTISSLQPEDIATYFCQHHYSSPLTFGGGTKLEIK

Assays:
[1] = design: species or system Sprague Dawley rats; settings: rat, in vivo, iv, 3 mg/kg
Experimental: The rat pharmacokinetics study was carried out in male Sprague Dawley rats (275-325 g). Rats received an IV slow bolus (3 mg/kg) of test antibody. Blood samples were taken at the following time-points: pre-dose, 2 min, 1 hour, 3 hours, 6 hours, 24 hours, 48 hours, 96 hours, 7 days, 14 days and 21 days after dosing. For each animal and for each blood sampling, 200 μL venous blood was obtained from the sublingual vein under isoflurane anaesthesia in K2EDTA vials. The blood samples were gently mixed, placed immediately on crushed ice and centrifuged within 30 min of sampling at approximately 1500×g for approximately 10 min at approximately 4° C. For each blood sample, the resulting plasma was separated into 2 aliquots of 30 μL and transferred, using disposable plastic material, into polypropylene tubes with conical bottom and stored at −80° C. until analysis by capture ELISA. Plates were coated overnight with 1 μg/mL capture IgG before washing and blocking with 3% (w/v) milk the next morning for 2 hours. […] Absorbance was measured on a plate reader at 450 nm. Antibody concentrations were calculated using interpolation off a standard curve constructed for each individual test IgG in Prism 5 (GraphPad Software, CA, USA). Interpolated data was analysed using Phoenix WinNonlin® version 8.1 (Certara USA, Inc., Princeton, NJ) to extract relevant PK parameters. […]

Irrelevant GPCR = assay: Transient-transfection CIFAT, irrelevant GPCR control (fixed and live cells); type: binding; settings: cells expressing irrelevant GPCR
Experimental: (§1) Anti-LPAR1 antibodies of the invention were tested alongside commercially available anti-LPAR1 antibodies in the transient-transfection CIFAT assay for live cells (method 1.11) and in the transient-transfection CIFAT assay for fixed cells (method 1.11).
The results are shown in FIGS. 11 and 12, wherein the scale bar represents 100 μm.

LPAR1 [2] = molecular target: T1, LPAR1 (Homo sapiens, UniProt Q92633); assay: LPAR1 binding affinity during discovery and affinity maturation, method not stated; design: expressed in transfected cells; settings: stated in words
LPAR1 [3] = molecular target: T1, LPAR1; assay: BRET assay (G protein activation and βArrestin 2 biosensors); type: cell-based; design: expressed in transfected cells; host or cells: HEK293 (transient, PEI); settings: G13 biosensor
Experimental: Using polyethylenimine (PEI) transfection agent at a 3:1 ratio, HEK293 cells were co-transfected in suspension with hLPAR1 and one of the following biosensors: G protein activation sensors (Gαi2, Gα13, and Gαq) and the βArrestin 2-PM recruitment biosensor (+GRK2). Cells were directly seeded in 96-well plates immediately following transfection at a density of 35,000 cells/well. 48 hours post-transfection, BRET experiments were performed in both agonist and allosteric/antagonist mode. Using a plate washer, culture medium was aspirated and replaced with 30 μl of Hank's Balanced Salt Solution buffer (HBSS). Plates were equilibrated at room temperature for 60 minutes. For agonist testing, serial dilutions of the antibodies were performed in PBS and then added to each well. Antibodies were assayed at 12 concentrations in technical duplicates. Small molecules were added to each relevant well. Small molecules were assayed at 22 concentrations with each biosensor. Cells were then incubated with the antibodies or small molecules at room temperature for 60 or 10 minutes, respectively. 10 μl of 10 μM e-Coelenterazine Prolume Purple (Nanolight) was then added to each well. Cells were incubated at room temperature for an additional 10 minutes. BRET readings were then collected with a 0.4 sec integration time on a plate reader (filters: 400 nm/70 nm, 515 nm/20 nm). For allosteric testing (after agonist testing), an EC75 of the endogenous ligand (oleoyl-LPA) was added to each well already containing antibody or small molecule. Cells were incubated at room temperature for an additional 10 minutes. BRET readings were then collected with a 0.4 sec integration time on a plate reader (filters: 400 nm/70 nm, 515 nm/20 nm). BRET signals were determined by calculating the ratio of light emitted by GFP-acceptor (515 nm) over light emitted by luciferase-donor (400 nm). All BRET ratios were standardized with pre-established BRET values for positive and negative controls. The standardized BRET ratio is referred to as universal BRET (uBRET). Resulting dose-response curves were fitted using the three- or four-parameter logistic non-linear regression model in GraphPad Prism 9.
The inhibition characteristics of Antibody 12 were investigated by Bioluminescence Resonance Energy Transfer (BRET, method 1.15) and compared to a small molecule LPAR1 inhibitor of the prior art (BMS-986020), see FIG. 13. The upper lines are values recorded with LPA present and the lower lines are values recorded with LPA not present. […] This can only happen if the ligand (LPA) is also interacting with the receptor at the same time to enable some signalling. […]

LPAR1 [4] = molecular target: T1, LPAR1; assay: Transient-transfection CIFAT, live cells; type: binding; design: HA; expressed in transfected cells; host or cells: CHO-K1 (transient, PEI); settings: 5 μg/mL or 20 μg/mL
Experimental: CHO-K1 cells are seeded in multi well plates at 20,000 cells per 200 μL full growth medium and incubated for 24 hours at 37° C. In a sterile tube, 0.0309 uL/well PEI is diluted into 10 uL/well transfection medium (DMEM supplemented with 2 mM L-glutamine and Penicillin-Streptomycin). The diluted PEI is added to 100 ng/well DNA, before mixing immediately and incubating the mixture for 10 minutes at room temperature. 200 μL/well full growth medium is added to the PEI-DNA mixture, then medium in wells is taken off and 200 ul full growth medium/PEI/DNA mixture is added in the wells of the adherent cell plate. The plate is incubated for 24 hours at 37° C. The medium is discarded and replaced with 200 μL full growth medium. The plate is incubated for 24 hours at 37° C. Medium is removed from the wells and the cells incubated with primary antibody at varying concentrations for 75 minutes at 37° C. After washing and cell fixation with 4% PFA, the binding of the antibodies is detected using a goat anti-human detection antibody, incubated for 1 hour at room temperature. Fluorescence at 488 nm is measured.
CHO-K1 cells were seeded in clear 96-well plates at 20,000 cells per 200 μL full growth medium and incubated for 24 hours at 37° C. The following day, in a sterile tube, 0.0309 uL/well PEI (Generon, MW 160,000) was diluted into 10 uL/well transfection medium (DMEM supplemented with 2 mM L-glutamine and Penicillin-Streptomycin). The diluted PEI was added to 100 ng/well DNA encoding the target protein (human LPAR1 (SEQ ID NO: 62) unless otherwise stated), before vortexing immediately and incubating the mixture for 10 minutes at room temperature. 200 μL/well full growth medium was added to the PEI-DNA mixture, then medium in wells was taken off and 200 ul full growth medium/PEI/DNA mixture was added in the wells of the adherent cell plate. The plate was incubated for 24 hours at 37° C. The next day, the medium was discarded and replaced with 200 μL full growth medium. The plate was incubated for 24 hours at 37° C. The following day, medium was removed from the wells and the cells incubated with primary antibody at varying concentrations for 75 minutes at 37° C. After washing and cell fixation with 4% PFA, the binding of the antibodies was detected using a goat anti-human Alexa Fluor 488 detection antibody (Invitrogen), incubated for 1 hour at room temperature. Fluorescence at 488 nm was measured using a BMG LABTECH ClarioStar plate reader and microscopy images were taken at 10× magnification.
as §1

LPAR1 [5] = molecular target: T1, LPAR1; assay: Transient-transfection CIFAT, fixed/permeabilised cells; type: binding; design: HA; expressed in transfected cells; host or cells: CHO-K1 (transient, PEI); settings: 5 μg/mL
[6] = Dose range-finding toxicity study, liver histopathology; type: in vivo; settings: cynomolgus
Experimental: A dose range-finding study was carried out to determine the potential toxicity of Antibody 17 when given by the intravenous (infusion) route to cynomolgus monkeys. The test item, Antibody 17, was administered to 8 animals via intravenous infusion (30 minutes) on Day 1 (Group 1) or on Days 1, 8 and 15 (Groups 2 to 4). Animals were split by sex, allocated into 4 groups and dosed with Antibody 17 at 10, 33 or 100 mg/kg/day.
A complete gross pathological examination, organ weight recording and microscopic evaluation were performed on the six animals that were given 3 doses of Antibody 17 (Groups 2 to 4) two days after the third dose.

[7] = test system: renal fibrosis after UUO surgery; assay: Unilateral ureteral obstruction (UUO) efficacy model of renal fibrosis; type: in vivo, Hartley guinea pigs; settings: Study 2
Experimental: Unilateral ureteral obstruction (UUO) is a well-characterized disease model for renal fibrosis. The UUO model encompasses key pathophysiological features of chronic kidney disease; tubular necrosis and inflammatory cell infiltration within a relatively short period.
Two unilateral ureteral obstruction (UUO) model efficacy studies were carried out in six-week old female Hartley guinea pigs. On Day 0, UUO surgery was performed. BMS-986020 was administered orally at a dose level of 30 mg/kg in a volume of 5 mL/kg twice daily at from Day −1 to 9. Isotype control and anti-LPAR1 antibody was intraperitoneally administered at a dose level of 6 mg/kg (low) or 20 mg/kg (high) in a volume of 10 mL/kg at Day −1, Day 0, Day 3 and Day 6. The viability, clinical signs, behaviour and individual body weight was monitored daily.
The animals were sacrificed at Day 10. The ligated left kidney and right kidney weight were measured at sacrifice.
Hydroxyproline is an amino acid, making up around 14% of collagen and acts as an important indicator of the severity of fibrosis. To quantify kidney hydroxyproline content, frozen posterior right section of left kidney samples were processed by an alkaline-acid hydrolysis method. AC buffer (2.2M acetic acid/0.48M citric acid) was added to the samples, followed by centrifugation to collect the supernatant. A standard curve of hydroxyproline was constructed with serial dilutions of trans-4-hydroxy-L-proline (Sigma-Aldrich, USA) starting at 16 μg/mL. The prepared samples and standards were mixed with chloramine T solution (Nacalai Tesque Inc., Japan) and incubated for 25 minutes at room temperature. The samples were then mixed with Ehrlich's solution and heated at 65° C. for 20 minutes to develop the colour. After samples were cooled on ice and centrifuged to remove precipitates, the optical density of each supernatant was measured at 560 nm. The concentrations of hydroxyproline were calculated from the hydroxyproline standard curve. Protein concentrations of kidney samples were determined using a BCA protein assay kit (Thermo Fisher Scientific, USA) and used to normalize the calculated hydroxyproline values. Kidney hydroxyproline contents were expressed as μg per mg protein.
The left kidney was fixed in Bouin's solution and embedded in paraffin. For PAS staining, sections were cut from paraffin blocks and stained with Schiff's reagent (FUJIFILM Wako pure chemical corporation, Japan) according to the manufacturer's instructions. To visualize collagen deposition, kidney sections were stained using picro-Sirius red solution (FUJIFILM Wako pure chemical corporation). For quantification of interstitial and medulla fibrosis area, bright field images in the corticomedullary region were captured using a digital camera (DFC295) at 200-fold magnification, and the positive areas in 5 fields/section were measured using ImageJ software (National Institute of Health, USA).

[8] = IV infusion, 10, 33 or 100 mg/kg/day

T1 sequence (Q92633 whole entry): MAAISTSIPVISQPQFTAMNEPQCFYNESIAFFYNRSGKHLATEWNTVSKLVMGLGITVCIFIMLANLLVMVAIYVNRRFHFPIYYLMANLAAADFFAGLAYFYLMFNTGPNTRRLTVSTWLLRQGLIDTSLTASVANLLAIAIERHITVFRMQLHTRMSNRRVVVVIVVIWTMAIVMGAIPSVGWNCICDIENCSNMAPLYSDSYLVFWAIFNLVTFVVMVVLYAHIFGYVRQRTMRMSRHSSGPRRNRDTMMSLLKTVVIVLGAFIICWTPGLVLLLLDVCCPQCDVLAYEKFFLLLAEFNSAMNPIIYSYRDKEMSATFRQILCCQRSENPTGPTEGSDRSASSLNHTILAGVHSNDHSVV

| Molecule | mean Cmax [1] | Irrelevant GPCR cell staining (Irrelevant GPCR) | binding affinity for LPAR1 (LPAR1 [2]) | mode of inhibition (LPAR1 [3]) | inhibition with LPA present compared to the system where LPA is absent (LPAR1 [3]; even at high concentrations) | LPAR1 live cell staining (LPAR1 [4]) | LPAR1 fixed cell staining (LPAR1 [5]) | histopathology findings ([6]; 3 doses (Days 1, 8 and 15), two days after the third dose) | adverse effects throughout the study [6, 8] | tolerability at the injection sites [6, 8] | unscheduled deaths [6, 8] | histological picrosirius staining [7] | kidney hydroxyproline ([7]; BMS-986020 30 mg/kg oral vs vehicle, antibody 20 mg/kg (high) i.p. vs isotype antibody) |
| --- | --- | --- | --- | --- | --- | --- | --- | --- | --- | --- | --- | --- | --- |
| B1 | 217.5 µg/mL | Irrelevant GPCR-No significant cell staining | minimal effect on affinity | acting allosterically | does not deliver equivalent inhibition | LPAR1-Significant fixed and live cell staining | LPAR1-Significant fixed and live cell staining |  |  |  |  |  |  |
| B2 | 143.8 µg/mL |  |  |  |  |  |  | no adverse findings | No adverse effects | well tolerated | no unscheduled deaths | No observable difference | significant reduction in hydroxyproline |
